Measured values: US20220323445A1, “REDUCING IMMUNOGENICITY TO PEGLOTICASE” (Horizon Therapeutics Ireland DAC, priority 2020, published 2022)
“And” between values parts separate entries of the source, which are not always exact repeats. Equal entries are not always repeated.

Experiments:
[1] = tested on: serum uric acid (sUA); settings: cited from earlier work
[2] = tested on: patients with uncontrolled gout; test: Health Assessment Questionnaire (HAQ-DI, HAQ pain, HAQ health), open-label study; assay type: in vivo, human; design: key to HAQ-Health, Observed, Median / HAQ-Health, Change from Baseline, Median: 0-100 scale; 0 = very well, 100 = very poor health; key to HAQ-DI, Observed, Median / HAQ-DI, Change from Baseline, Median: HAQ-DI scale 0-3; 0 = no difficulty, 3 = unable to do; settings: mITT
Procedure: Quality-of-Life Assessment: The HAQ was administered at the Screening and Week −4 or week −6 (prior to the first dose of MTX) Visits during the MTX Run-in Period for the open-label and randomized studies, respectively; prior to pegloticase infusion at the Day 1 and Weeks 14, 24 and 36 Visits or at the Day 1 and weeks 6, 14, 20, 24, 30, 36, and 44 visits during the Pegloticase+IMM Period for the open-label and randomized studies, respectively; at the End of Pegloticase Infusions Visit (if applicable), the Week 52/End of Study/Early Termination Visit and the Post Treatment Periods 3 and 6 Month Follow-up Visits (open-label study). The HAQ-DI is a self-report functional status instrument that can be filled out by a subject in less than 5 minutes and requires 1 minute to score. The index measures disability over the past week by asking a total of 20 questions covering 8 domains of function: dressing and grooming, arising, eating, walking, hygiene, reach, grip, and usual activities. There are at least 2 questions in each domain and the 8 domains represent a comprehensive set of functional activities. The HAQ-DI is calculated by scoring the answer to each question in the HAQ from 0 to 3, with 0 representing the ability to do without any difficulty, and 3 representing inability to do. Any activity that requires assistance from another individual or requires the use of an assistive device raises a 0 or 1 score to a 2. The highest score for each of the 8 domains is summed (range from 0 to 24) and divided by 8 to yield, on a scale with 25 possible values, a Functional Disability Index with a range from 0 to 3. The disability index is based on the number of domains answered and is computed only if the subject completes answers to at least 6 domains. The HAQ pain scale asks subjects to record how much pain they have had in the past week on a scale of 0 to 100, where zero represents “no pain” and 100 represents “severe pain”. The HAQ health scale is a measure of overall health. Subjects are asked to rate how well they are doing on a score of 0 to 100, where zero represents “very well” and 100 represents “very poor” health.

[3] = Day 1 vs Methotrexate Baseline, n=13
[4] = Early Termination Visit vs Methotrexate Baseline, n=3
[5] = Early Termination Visit vs Pegloticase Baseline, n=3
[6] = End of Pegloticase Infusions Visit vs Methotrexate Baseline, n=2
[7] = End of Pegloticase Infusions Visit vs Pegloticase Baseline, n=2
[8] = End of Pegloticase Infusions Visit, n=2
[9] = Week 14 vs Methotrexate Baseline, n=14

B1: pegloticase (protein)
chain: TYKKNDEVEFVRTGYGKDMIKVLHIQRDGKYHSIKEVATTVQLTLSSKKDYLHGDNSDVIPTDTIKNTVNVLAKFKGIKSIETFAVTICEHFLSSFKHVIRAQVYVEEVPWKRFEKNGVKHVHAFIYTPTGTHFCEVEQIRNGPPVIHSGIKDLKVLKTTQSGFEGFIKDQFTTLPEVKDRCFATQVYCKWRYHQGRDVDFEATWDTVRSIVLQKFAGPYDKGEYSPSVQKTLYDIQVLTLGQVPEIEDMEISLPNIHYLNIDMSKMGLINKEEVLLPLDNPYGKITGTVKRKLSSRL
modifications: monomethoxy PEG conjugated; Krystexxa Sequence
notes: covalent conjugate of uricase produced by a genetically modified strain of Escherichia coli and monomethoxypoly (ethylene glycol)
**Q.** For B1, which “response rate (proportion of responders) during Month 6 in phase 3 studies” value ([1]; pegloticase 8 mg every 2 weeks, without MTX) is on record?
**A.** The value was 43% and 43.5%.

**Q.** What about the “proportion of patients maintaining therapeutic response at 6 months, previously reported” value ([1]; pegloticase alone) of the same molecule?
**A.** Its value is 42%.

**Q.** And the “HAQ-DI, Observed, Mean (SD)” value ([2]; Day 1, n=13)?
**A.** Its value is 0.8 (0.77).

**Q.** What about the “HAQ-DI, Observed, Median” value ([2]; Day 1, n=13) of the same molecule?
**A.** Its value is 0.5.

**Q.** What about the “HAQ-Health, Observed, Mean (SD)” value ([2]; Day 1, n=13) of the same molecule?
**A.** Its value is 37.8 (27.06).

**Q.** And the “HAQ-Health, Observed, Median” value ([2]; Day 1, n=13)?
**A.** The value was 25.0.

**Q.** And the “HAQ-Pain, Observed, Mean (SD)” value ([2]; Day 1, n=13)?
**A.** The value was 42.5 (22.24).

**Q.** And the “HAQ-Pain, Observed, Median” value ([2]; Day 1, n=13)?
**A.** The value was 40.0.

**Q.** And the “HAQ-DI, Change from Baseline, Mean (SD)” value [2, 3]?
**A.** Its value is 0.1 (0.27).

**Q.** And the “HAQ-DI, Change from Baseline, Median” value [2, 3]?
**A.** Its value is 0.0.

**Q.** What about the “HAQ-Health, Change from Baseline, Mean (SD)” value (“HAQ-Health, Change … (SD)” for short) [2, 3] of the same molecule?
**A.** The value was −8.8 (38.29).

**Q.** And the “HAQ-Health, Change from Baseline, Median” value [2, 3]?
**A.** Its value is 10.0.

**Q.** And the “HAQ-Pain, Change from Baseline, Mean (SD)” value (“HAQ-Pain, Change … (SD)” for short) [2, 3]?
**A.** The value was 2.3 (19.93).

**Q.** What about the “HAQ-Pain, Change from Baseline, Median” value [2, 3] of the same molecule?
**A.** The value was 0.0.

**Q.** And the “HAQ-DI, Change from Baseline, Mean (SD)” value [2, 4]?
**A.** The value was 0.2 (0.90).

**Q.** What about the “HAQ-DI, Change from Baseline, Median” value [2, 4] of the same molecule?
**A.** The value was −0.3.

**Q.** What about the “HAQ-Health, Change … (SD)” value [2, 4] of the same molecule?
**A.** The value was −0.7 (16.77).

**Q.** And the “HAQ-Health, Change from Baseline, Median” value [2, 4]?
**A.** The value was 8.0.

**Q.** What about the “HAQ-Pain, Change … (SD)” value [2, 4] of the same molecule?
**A.** The value was 19.0 (36.51).

**Q.** What about the “HAQ-Pain, Change from Baseline, Median” value [2, 4] of the same molecule?
**A.** Its value is 7.0.

**Q.** And the “HAQ-DI, Change from Baseline, Mean (SD)” value [2, 5]?
**A.** Its value is 0.2 (0.56).

**Q.** And the “HAQ-DI, Change from Baseline, Median” value [2, 5]?
**A.** Its value is 0.1.

**Q.** And the “HAQ-Health, Change … (SD)” value [2, 5]?
**A.** Its value is −11.7 (62.52).

**Q.** And the “HAQ-Health, Change from Baseline, Median” value [2, 5]?
**A.** Its value is −10.0.

**Q.** What about the “HAQ-Pain, Change … (SD)” value [2, 5] of the same molecule?
**A.** Its value is 0.0 (45.83).

**Q.** And the “HAQ-Pain, Change from Baseline, Median” value [2, 5]?
**A.** Its value is −10.0.

**Q.** What about the “HAQ-DI, Observed, Mean (SD)” value ([2]; Early Termination Visit, n=3) of the same molecule?
**A.** The value was 0.7 (0.51).

**Q.** And the “HAQ-DI, Observed, Median” value ([2]; Early Termination Visit, n=3)?
**A.** Its value is 0.6.

**Q.** And the “HAQ-Health, Observed, Mean (SD)” value ([2]; Early Termination Visit, n=3)?
**A.** Its value is 28.3 (40.72).

**Q.** And the “HAQ-Health, Observed, Median” value ([2]; Early Termination Visit, n=3)?
**A.** Its value is 10.0.

**Q.** And the “HAQ-Pain, Observed, Mean (SD)” value ([2]; Early Termination Visit, n=3)?
**A.** Its value is 46.7 (40.41).

**Q.** And the “HAQ-Pain, Observed, Median” value ([2]; Early Termination Visit, n=3)?
**A.** Its value is 40.0.

**Q.** And the “HAQ-DI, Change from Baseline, Mean (SD)” value [2, 6]?
**A.** The value was −0.1 (0.35).

**Q.** And the “HAQ-DI, Change from Baseline, Median” value [2, 6]?
**A.** Its value is −0.1.

**Q.** And the “HAQ-Health, Change … (SD)” value [2, 6]?
**A.** Its value is −80.0 (0.00).

**Q.** What about the “HAQ-Health, Change from Baseline, Median” value [2, 6] of the same molecule?
**A.** Its value is −80.0.

**Q.** What about the “HAQ-Pain, Change … (SD)” value [2, 6] of the same molecule?
**A.** The value was 2.5 (74.25).

**Q.** What about the “HAQ-Pain, Change from Baseline, Median” value [2, 6] of the same molecule?
**A.** Its value is 2.5.

**Q.** And the “HAQ-DI, Change from Baseline, Mean (SD)” value [2, 7]?
**A.** The value was −0.1 (0.35).

**Q.** What about the “HAQ-DI, Change from Baseline, Median” value [2, 7] of the same molecule?
**A.** Its value is −0.1.

**Q.** And the “HAQ-Health, Change … (SD)” value [2, 7]?
**A.** Its value is −45.0 (49.50).

**Q.** And the “HAQ-Health, Change from Baseline, Median” value [2, 7]?
**A.** The value was −45.0.

**Q.** And the “HAQ-Pain, Change … (SD)” value [2, 7]?
**A.** The value was 2.5 (74.25).

**Q.** And the “HAQ-Pain, Change from Baseline, Median” value [2, 7]?
**A.** The value was 2.5.

**Q.** What about the “HAQ-DI, Observed, Mean (SD)” value [2, 8] of the same molecule?
**A.** Its value is 0.1 (0.18).

**Q.** What about the “HAQ-DI, Observed, Median” value [2, 8] of the same molecule?
**A.** The value was 0.1.

**Q.** And the “HAQ-Health, Observed, Mean (SD)” value [2, 8]?
**A.** The value was 0.0 (0.00).

**Q.** What about the “HAQ-Health, Observed, Median” value [2, 8] of the same molecule?
**A.** Its value is 0.0.

**Q.** What about the “HAQ-Pain, Observed, Mean (SD)” value [2, 8] of the same molecule?
**A.** Its value is 40.0 (56.57).

**Q.** And the “HAQ-Pain, Observed, Median” value [2, 8]?
**A.** The value was 40.0.

**Q.** What about the “HAQ-DI, Observed, Mean (SD)” value ([2]; Week 14, n=14) of the same molecule?
**A.** The value was 0.5 (0.41).

**Q.** And the “HAQ-DI, Observed, Median” value ([2]; Week 14, n=14)?
**A.** The value was 0.5.

**Q.** And the “HAQ-Health, Observed, Mean (SD)” value ([2]; Week 14, n=14)?
**A.** The value was 36.6 (33.87).

**Q.** And the “HAQ-Health, Observed, Median” value ([2]; Week 14, n=14)?
**A.** Its value is 16.5.

**Q.** What about the “HAQ-Pain, Observed, Mean (SD)” value ([2]; Week 14, n=14) of the same molecule?
**A.** The value was 27.1 (26.25).

**Q.** And the “HAQ-Pain, Observed, Median” value ([2]; Week 14, n=14)?
**A.** Its value is 15.0.

**Q.** And the “HAQ-DI, Change from Baseline, Mean (SD)” value [2, 9]?
**A.** Its value is −0.2 (0.77).

**Q.** And the “HAQ-DI, Change from Baseline, Median” value [2, 9]?
**A.** Its value is 0.0.

**Q.** What about the “HAQ-Health, Change … (SD)” value [2, 9] of the same molecule?
**A.** The value was −12.5 (36.79).

**Q.** And the “HAQ-Health, Change from Baseline, Median” value [2, 9]?
**A.** The value was −5.0.

**Q.** What about the “HAQ-Pain, Change … (SD)” value [2, 9] of the same molecule?
**A.** Its value is −13.9 (30.48).
